Results reported in paper PMC7683652 (Nature Communications, 2020).

Target: the molecule itself
Test: SEC; size exclusion chromatography of the truncated TDP-43 proteins against molecular weight standards (Supplementary Fig. 3a); conditions not shown

B1: TDP-43 N-terminal region (aa 1-100) (domain or fragment, UniProt Q13148 1-100, looked up)
chain: MSEYIRVTEDENDEPIEIPSEDDGTVLLSTVTAQFPGACGLRYRNPVSQCMRGVRLVEGILHAPDAGWGNLVYVVNYPKDNKRKMDETDASSAVKVKRAV
notes: the methods say aa; 1-101; calculated 12.5 kDa; C-terminal limit is printed as 100 (results, legend) and as 101 (methods); also called N-terminal TDP-43; source: E. coli M15 (pQE30), purified (Ni-NTA)
  stoichiometry N: 2
